Reference: patent US20230346961A1, “GLP-1 AND GIP RECEPTOR CO-AGONISTS” (Novo Nordisk A/S, priority 2020, published 2023)
Starred links: 1 amine or outer side, 2 acyl side, 3 side chain; linkers in the order of their positions; H or OH if unused. Non-standard residues stand in square brackets, D forms with d. Groups on a side chain read outwards from the residue. No end group written: not given here. *: point of attachment. C18 diacid = O=C(O)CCCCCCCCCCCCCCCCC(=O)*; γGlu = O=C(O)[C@H](CCC(=O)[*:2])N[*:1]; εLys = N[C@@H](CCCCN[*:1])C(=O)[*:2]; AEEA = NCCOCCOCC(=O)O; Aib = CC(C)(N)C(=O)O

B1: Compound #7 (peptide)
peptide: Ac-[dY]AEGTFTSDYSIYLDKQAA[Aib]K([AEEA-AEEA-γGlu-C18 diacid])FVNWLLAGGPSSGAPPPS-NH2
SMILES: CC[C@H](C)[C@H](NC(=O)[C@H](CO)NC(=O)[C@H](Cc1ccc(O)cc1)NC(=O)[C@H](CC(=O)O)NC(=O)[C@H](CO)NC(=O)[C@@H](NC(=O)[C@H](Cc1ccccc1)NC(=O)[C@@H](NC(=O)CNC(=O)[C@H](CCC(=O)O)NC(=O)[C@H](C)NC(=O)[C@@H](Cc1ccc(O)cc1)NC(C)=O)[C@@H](C)O)[C@@H](C)O)C(=O)N[C@@H](Cc1ccc(O)cc1)C(=O)N[C@@H](CC(C)C)C(=O)N[C@@H](CC(=O)O)C(=O)N[C@@H](CCCCN)C(=O)N[C@@H](CCC(N)=O)C(=O)N[C@@H](C)C(=O)N[C@@H](C)C(=O)NC(C)(C)C(=O)N[C@@H](CCCCNC(=O)COCCOCCNC(=O)COCCOCCNC(=O)CC[C@H](NC(=O)CCCCCCCCCCCCCCCCC(=O)O)C(=O)O)C(=O)N[C@@H](Cc1ccccc1)C(=O)N[C@H](C(=O)N[C@@H](CC(N)=O)C(=O)N[C@@H](Cc1c[nH]c2ccccc12)C(=O)N[C@@H](CC(C)C)C(=O)N[C@@H](CC(C)C)C(=O)N[C@@H](C)C(=O)NCC(=O)NCC(=O)N1CCC[C@H]1C(=O)N[C@@H](CO)C(=O)N[C@@H](CO)C(=O)NCC(=O)N[C@@H](C)C(=O)N1CCC[C@H]1C(=O)N1CCC[C@H]1C(=O)N1CCC[C@H]1C(=O)N[C@@H](CO)C(N)=O)C(C)C
B2: Compound #9 (peptide)
peptide: Y[Aib]EGTFTSDYSIYLDKQAA[Aib]K([εLys-εLys-γGlu-C18 diacid])FVNWLLAGGPSSGAPPPS-NH2
modifications: N-terminus assumed
SMILES: CC[C@H](C)[C@H](NC(=O)[C@H](CO)NC(=O)[C@H](Cc1ccc(O)cc1)NC(=O)[C@H](CC(=O)O)NC(=O)[C@H](CO)NC(=O)[C@@H](NC(=O)[C@H](Cc1ccccc1)NC(=O)[C@@H](NC(=O)CNC(=O)[C@H](CCC(=O)O)NC(=O)C(C)(C)NC(=O)[C@@H](N)Cc1ccc(O)cc1)[C@@H](C)O)[C@@H](C)O)C(=O)N[C@@H](Cc1ccc(O)cc1)C(=O)N[C@@H](CC(C)C)C(=O)N[C@@H](CC(=O)O)C(=O)N[C@@H](CCCCN)C(=O)N[C@@H](CCC(N)=O)C(=O)N[C@@H](C)C(=O)N[C@@H](C)C(=O)NC(C)(C)C(=O)N[C@@H](CCCCNC(=O)[C@@H](N)CCCCNC(=O)[C@@H](N)CCCCNC(=O)CC[C@H](NC(=O)CCCCCCCCCCCCCCCCC(=O)O)C(=O)O)C(=O)N[C@@H](Cc1ccccc1)C(=O)N[C@H](C(=O)N[C@@H](CC(N)=O)C(=O)N[C@@H](Cc1c[nH]c2ccccc12)C(=O)N[C@@H](CC(C)C)C(=O)N[C@@H](CC(C)C)C(=O)N[C@@H](C)C(=O)NCC(=O)NCC(=O)N1CCC[C@H]1C(=O)N[C@@H](CO)C(=O)N[C@@H](CO)C(=O)NCC(=O)N[C@@H](C)C(=O)N1CCC[C@H]1C(=O)N1CCC[C@H]1C(=O)N1CCC[C@H]1C(=O)N[C@@H](CO)C(N)=O)C(C)C
B3: Compound #8 (peptide)
peptide: Ac-[dY]AEGTFTSDYSIYLDKQAA[Aib]K([εLys-εLys-γGlu-C18 diacid])FVNWLLAGGPSSGAPPPS-NH2
SMILES: CC[C@H](C)[C@H](NC(=O)[C@H](CO)NC(=O)[C@H](Cc1ccc(O)cc1)NC(=O)[C@H](CC(=O)O)NC(=O)[C@H](CO)NC(=O)[C@@H](NC(=O)[C@H](Cc1ccccc1)NC(=O)[C@@H](NC(=O)CNC(=O)[C@H](CCC(=O)O)NC(=O)[C@H](C)NC(=O)[C@@H](Cc1ccc(O)cc1)NC(C)=O)[C@@H](C)O)[C@@H](C)O)C(=O)N[C@@H](Cc1ccc(O)cc1)C(=O)N[C@@H](CC(C)C)C(=O)N[C@@H](CC(=O)O)C(=O)N[C@@H](CCCCN)C(=O)N[C@@H](CCC(N)=O)C(=O)N[C@@H](C)C(=O)N[C@@H](C)C(=O)NC(C)(C)C(=O)N[C@@H](CCCCNC(=O)[C@@H](N)CCCCNC(=O)[C@@H](N)CCCCNC(=O)CC[C@H](NC(=O)CCCCCCCCCCCCCCCCC(=O)O)C(=O)O)C(=O)N[C@@H](Cc1ccccc1)C(=O)N[C@H](C(=O)N[C@@H](CC(N)=O)C(=O)N[C@@H](Cc1c[nH]c2ccccc12)C(=O)N[C@@H](CC(C)C)C(=O)N[C@@H](CC(C)C)C(=O)N[C@@H](C)C(=O)NCC(=O)NCC(=O)N1CCC[C@H]1C(=O)N[C@@H](CO)C(=O)N[C@@H](CO)C(=O)NCC(=O)N[C@@H](C)C(=O)N1CCC[C@H]1C(=O)N1CCC[C@H]1C(=O)N1CCC[C@H]1C(=O)N[C@@H](CO)C(N)=O)C(C)C

Assays:
Assay in all cases: cell-based or functional assay
[1] = molecular target: T1, mouse glucose-dependent insulinotropic polypeptide receptor (mouse) (UniProt Q0P543)
T1 sequence (looked up): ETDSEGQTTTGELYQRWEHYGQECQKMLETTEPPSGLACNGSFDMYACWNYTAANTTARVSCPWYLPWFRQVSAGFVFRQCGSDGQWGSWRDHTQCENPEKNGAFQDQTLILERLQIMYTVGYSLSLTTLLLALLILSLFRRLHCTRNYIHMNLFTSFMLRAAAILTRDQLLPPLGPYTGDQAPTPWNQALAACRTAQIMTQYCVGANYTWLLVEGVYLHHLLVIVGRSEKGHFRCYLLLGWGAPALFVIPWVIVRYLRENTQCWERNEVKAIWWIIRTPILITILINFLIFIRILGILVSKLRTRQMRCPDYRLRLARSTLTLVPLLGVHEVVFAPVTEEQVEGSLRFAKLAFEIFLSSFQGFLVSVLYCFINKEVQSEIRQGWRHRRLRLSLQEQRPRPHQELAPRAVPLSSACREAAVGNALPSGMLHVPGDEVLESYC

[2] = molecular target: T2, human glucose-dependent insulinotropic polypeptide receptor (human) (UniProt P48546)
T2 sequence (looked up): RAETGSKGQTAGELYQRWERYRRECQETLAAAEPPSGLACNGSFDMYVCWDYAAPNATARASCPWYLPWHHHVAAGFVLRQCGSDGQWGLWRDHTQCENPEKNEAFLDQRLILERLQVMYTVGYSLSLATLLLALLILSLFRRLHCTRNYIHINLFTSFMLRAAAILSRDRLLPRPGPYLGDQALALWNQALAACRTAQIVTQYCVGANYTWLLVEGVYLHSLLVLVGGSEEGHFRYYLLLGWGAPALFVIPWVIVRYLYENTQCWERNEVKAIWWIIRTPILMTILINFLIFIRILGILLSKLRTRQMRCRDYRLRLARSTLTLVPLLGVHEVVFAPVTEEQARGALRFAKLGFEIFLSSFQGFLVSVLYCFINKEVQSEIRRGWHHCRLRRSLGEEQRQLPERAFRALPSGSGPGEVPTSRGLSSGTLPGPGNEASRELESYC

[3] = molecular target: human glucagon-like peptide 1 receptor (human, UniProt P43220 24-463)
[4] = molecular target: T3, human glucose-dependent insulinotropic polypeptide receptor (human, UniProt P48546 22-466)
T3 sequence (looked up): T2 sequence (looked up)

[5] = molecular target: T4, mouse glucagon-like peptide 1 receptor (mouse, UniProt O35659 22-463)
T4 sequence (looked up): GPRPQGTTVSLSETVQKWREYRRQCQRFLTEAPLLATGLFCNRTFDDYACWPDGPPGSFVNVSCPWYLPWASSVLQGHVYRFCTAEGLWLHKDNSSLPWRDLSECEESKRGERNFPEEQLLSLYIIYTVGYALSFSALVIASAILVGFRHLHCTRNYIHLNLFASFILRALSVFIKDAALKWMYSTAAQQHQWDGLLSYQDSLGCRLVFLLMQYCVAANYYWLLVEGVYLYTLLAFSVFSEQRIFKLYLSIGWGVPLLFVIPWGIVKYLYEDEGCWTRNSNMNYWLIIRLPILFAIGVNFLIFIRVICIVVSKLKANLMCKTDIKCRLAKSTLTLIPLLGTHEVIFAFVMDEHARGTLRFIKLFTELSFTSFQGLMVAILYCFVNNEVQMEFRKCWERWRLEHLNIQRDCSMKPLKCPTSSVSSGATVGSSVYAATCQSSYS

[6] = molecular target: T5, mouse glucose-dependent insulinotropic polypeptide receptor (mouse, UniProt Q0P543 19-460)
T5 sequence (looked up): T1 sequence (looked up)

human glucagon receptor = human glucagon receptor (human, UniProt P47871 26-477)

Molecule	mGIPR, CRE Luc EC50 [1]	hGIPR, CRE Luc 0% HSA EC50 [2]	hGIPR, CRE Luc 1% HSA EC50 [2]	hGLP-1R, CRE Luc 0% HSA EC50 [3]	hGLP-1R, CRE Luc 1% HSA EC50 [3]	hGIPR, CRE Luc 0% HSA EC50 [4]	hGIPR, CRE Luc 1% HSA EC50 [4]	mGLP-1R, CRE Luc EC50 [5]	mGIPR, CRE Luc EC50 [6]	hGcgR, CRE Luc EC50 (human glucagon receptor)
mouse GIP (from UniProt P48756 44-85) (ligand)	0.0354 nM	–	–	–	–	–	–	–	–	–
human GIP (from UniProt P09681 52-93) (ligand)	–	0.0085 nM	0.0038 nM	–	–	–	–	–	–	–
B1	–	–	–	0.0557 nM	1.73 nM	0.0033 nM	0.0493 nM	0.0174 nM	0.0425 nM	–
B2	–	–	–	0.0067 nM	0.11 nM	0.0116 nM	0.135 nM	0.0025 nM	0.068 nM	> 10 nM
B3	–	–	–	0.0299 nM	0.699 nM	0.0047 nM	0.0341 nM	0.017 nM	0.0233 nM	–
